From patent US20190309034A1 (Boehringer Ingelheim, published 2019)

How the values were obtained:
[1] = molecular target: Recombinant soluble 60-mer human BAFF (His-HuBAFF 134-285) (human, UniProt Q9Y275 134-285); assay: cell-based or functional assay
[2] = molecular target: Recombinant soluble trimeric human BAFF (furin-cleaved human BAFF 134-285) (human, UniProt Q9Y275 134-285); assay: cell-based or functional assay

| Soluble 60-mer huBAFF (4 pM) Neutralization IC50 [1] | Soluble 60-mer huBAFF (4 pM) Neutralization IC90 [1] | Soluble trimeric huBAFF (50 pM) Neutralization IC50 [2] | Soluble trimeric huBAFF (50 pM) Neutralization IC90 [2] | Binder |
| --- | --- | --- | --- | --- |
| 234 pM | 1980 pM | 110 pM | 257 pM | 551H4D6 (antibody, V domains shown) VH: EVQLQQSGAELVRPGASVELSCTASGFNIKNDYLHWVKQRPEQGLEWIGWIDSANDKTKYAPKFQDKATITADPSSNTAYLQLSSLTSEDTAVYYCTRVGVQDGYYVRDFDYWGQGTTLTVSS VL: DIVLTQSPASLAVSLGQRATMSCRASESVDSYGNSFIHWYQQKPGQPPRLLIYRASNLNSGIPARFSGSGSRTDFTLTISSVEADDVATYYCHQNNEDPRTFGGGTKLEIK |
| 11 pM | 31 pM | 31 pM | 259 pM | 440E9D12 (antibody, V domains shown) VH: QVRLRESGPGLVAPSQNLFITCTVSGFSLTDYEINWVRQPPGKNLEWLGVIWTGGGTKYNSVLISRLNISKDNSKRQVFFKMTSLQTDDTAIYYCVREGRRYYAMDYWGQGTSVTVSS VL: NIVLTQSPASLPVSLGQRATMSCRASKSVDSYGTSFMHWYQHRPGQPPKLLISLASNLESGVPGRFSGSGSRTDFTLTIDPVEPDDAATYYCQQNNEDPRTFGGGTTLEIK |
| 15 pM | 44 pM | 42 pM | 765 pM | 384D5A2 (antibody, V domains shown) VH: QVTLKESGPGILQPSQTLSLTCSFSGFSLNTYGMGVGWIRQPSGKGLEWLANIWWNDDKYYNSALKSRLAISKDASNSQVFLKISSVDTTDTATYYCAQVAATIVTTYGAWFAYWGQGTLVTVSA VL: DIQMTQSPASLSVSVGETVTITCRSSENIYSSLAWYQQKQGKSPQLLVYAATNLAKGVPSRFSGSGSGTQYSLKINSLQSEDFGSYFCQHFWGSPFAFGSGTKLEIK |
| 27 pM | 154 pM | 38 pM | 491 pM | 418F6D9 (antibody, V domains shown) VH: QVQLQQSGPELVKPGASVKLSCKASGYTFTDYSIHWVKQSPGQGLEWIGWIYPGSGNTKYNDKFKGKATMTADKSSRTVYMQLSSLTSEESAVYFCARDYRRYYAIDYWGQGTSVTVSS VL: IVLTQSSASLAVSLGQRATISCRASESVDSYGNSLMHWYQQKPGQPPKLLIYIASNLESGVPARFSGSGSRTDFTLTIDPVEADDAATYYCQQNSEDPRTFGGGTKLEIK |
| 15 pM | 37 pM | 27 pM | 408 pM | 436H2C12 (antibody, V domains shown) VH: QVQLQQSGPELVKPGASVKLSCKASGYTFSDYTIHWVKQSPGQGLEWIGWIYPGRGNTKYNDKFKGKATMTADKSSSTAYMQLSSLTSEESAVYFCARDYRRYYAMDYWGQGTSVTVSS VL: NIVLTQSPASLAVSLGQRATISCRASESVDNYGNSFMHWYQQKPGQPPKLLISLASNLESGVPARFSGSGSRTDFTLTIDPVEADDAATYYCQQNNEDPRTFGGGTKLEIK |
| 24 pM | 130 pM | 36 pM | 602 pM | 450A2A7 (antibody, V domains shown) VH: QVQLQQSGPELVKPGASVKLSCKASGYTFTDYSIHWVKQSPGQGLEWIGWIYPGSDNTKYNDKFKGKASMTADKSSRTVYMHLSSLTSEESAVYFCARDYRRYYAMDYWGQGTSVTVSS VL: IVLTQSSASLAVSLGQRATISCRASESVDRYGNSLMHWYQQKPGQPPKLLIYIASNLESGVPARFSGSGSRTDFTLTIDPVEADDAATYYCQQNNEDPRTFGGGTKLEIK |
| 16 pM | 44 pM | 31 pM | 390 pM | 409F12A11 (antibody, V domains shown) VH: IQLQQSGPELVKPGASMKISCKASGYTFTDKYINWVKQRPGQGLEWIGWIYPGSGNTKYNEKFKGMATLTVDTSSNTAYIHLSSLTSEDSAVYFCARGIIYYYDGSYPYALDYWGQGTSVTVSS VL: DIVLTQSPASLALSLGQRATISCRATKGVSKSGYSYMHWYQQKPGQPPKLLIYLASNLESGVPARFSGSGSGTDFTLNIHPVEEEDVATYYCQHSRELPLTFGAGTKLELK |
| 10 pM | 27 pM | 26 pM | 266 pM | 436H6A9 (antibody, V domains shown) VH: QLQQSGPELVKPGASVKISCKASGYTFTDNFINWVKQRPGQGLEWIGWISPGSGNTKNNEKFKGKATVTVDTSSSTAYMQLSSLTSEDSAVYFCARGIIYYYDGTYPYALDYWGQGTSVTVSS VL: DIVLTQSPASLGVSLGQRATISCRATKGVTKSGYSYIHWYQQKPGQPPKLLIYLASNLQSGVPARFSGSGSGTDFTLNIHPVEEEDAATYYCQHSRELPLTFGAGTKLELK |
| 21 pM | 100 pM | 28 pM | 336 pM | 431G5A3 (antibody, V domains shown) VH: QLQQSGPELVKPGASVKLSCKASGYTFTDYSIHWVKQSPGQGLEWIGWIYPGSDNTKYNDKFKGKASMTADKSSRTVYMHLSSLTSEESAVYFCARDYRRYYAMDYWGQGTSVTVSS VL: KIVLTQSSASLAVSLGQRATISCRASESVDRYGNSLMHWYQQKPGQPPKLLIYIASNLESGVPARFSGSGSRTDFTLTIDPVEADDAATYYCQQNNEDPRTFGGGTKLEIK |
| 17 pM | 42 pM | 44 pM | 240 pM | 381A6A9 (antibody, V domains shown) VH: QVQLQQSGPELVKPGGSVKISCKAAGYSLTSYYIHWVKQRPGQGLEWIGLIFPGSGNSKYIEKFKGKATLTADTSSNTAYMQLSSLTSEDSAVYYCTRGDFGNYLAYWYFDVWGTGTTVTVSS VL: DIKMTQSPSSIYASLGERVTITCKASQDINSYLSWFQQKPGKSPKTLMYRANRLVDGVPSRFSGSGSGQDYSLTISSLEYEDMGNYYCLQYDEFPYTFGGGAKLEIK |
| 13 pM | 30 pM | 33 pM | 309 pM | 443C11A12 (antibody, V domains shown) VH: EVQLQQSGPELVKPGASVKMSCTASGYTFTSYVIHWMKQKPGQGLEWIGYLHRNNDGTKYNEKFKVKATLTSDESSNTAYMELSSLTSEDSAVYYCARGDYSNYFYWYFDVWGAGTTVSVSS VL: DIKMTPSPSSMYASLGERVTITCKASQDINSYLSWFQQKPGKSPKTLIYRANRLVDGVPSRFSGSGSGQDYSLTISSLEYEDMGIYYCLQYDEFPYTSGGGTKLEIK |
| 10 pM | 26 pM | 23 pM | 294 pM | 435A6B3 (antibody, V domains shown) VH: EVQLQQSGPELVKPGASMKMSCKASGYTFTSYVMHWMKQKPGQGLEWIGYLNPNNDGTKYNEKFKGKATLTSDKSSSTAYMELSSLTSEDSAVYYCARGDYSNYFYWYFDVWGAGTTVSVSS VL: DIKMTPSPSSMYASLGERVTITCKASQDINRYLSWFQQKPGKSPKTLIYRANRLVDGVPSRFSGSGSGQDYSLTISSLEYEDMGIYYCLQYDEFPYTFGGGTKLEIK |
| 13 pM | 39 pM | 28 pM | 329 pM | 537G7A6 (antibody, V domains shown) VH: QVQLKESGPGLVAPSQSLSITCTVSGFSLSRYSVHWIRQSPGKGLEWLGMIWGGGNTDYNSGLKSRLSISKDNSKSQVFLKMNSLENDDTAMYYCASPSLYYYDVAWFPYWGQGTLVTVSA VL: DIVLTQSPASLAVSVGQRATVSCRVSESVDRYADSFMHWYQQKPGQPPKLLIYLASNLESGVPARFSGSGSRTDFTLTIDPVEADDAATYYCQQNKEDPYTFGGGTKLELK |
| 7 pM | 29 pM | 16 pM | 433 pM | 394F5A5 (antibody, V domains shown) VH: VTLKESGPGILQPSQTLSLTCSFSGFSLRTFGMGVGWIRQPSGKGLEWLAHIWWNDEKYYNPTLKSRLTISKDTSKNQVFLRIANVDTAVTAAYYCARIGPSITTVVEGFPYWGQGTLVTVSA VL: DIVMTQSQKFMSTTIGDRVSITCKASQNVGSAVAWYQQKPGQPPKLLIYSTSNRYTGVPDRFTGSRSGTDFTLTVSNMQSEDLADYFCQQYASYPLTFGTGTKLELK |
| 16 pM | 37 pM | 43 pM | 293 pM | 441E6F2 (antibody, V domains shown) VH: RVQLKESGPGLVAPSQSLFITCTVSGFSLTTYEINWVRQSPGKGLEWLGVIWTGGTTKYNSAFISRLSITKDNSKSLVFLKMSSLQTDDTAIYYCVREGRRYYAMDYWGQGTSVTVSS VL: NIVLTQSPASLAVSLGQRATISCRTSESVDSYGNSFMFWFQQKPGQAPKLLIFLTSNLESGVPARFSGSGSRTDFTLTIDPVEADDAATYYCQQSNEDPRTFGGGTKLEIK |
| 12 pM | 35 pM | 25 pM | 284 pM | 444G1A10 (antibody, V domains shown) VH: RVQLKESGPGLVAPSQSLFITCTVSGFSLTTYEINWVRQSPGKGLEWLGVIWTGGTTKYNSAFISRLSITKDNSKSLVFLKMSSLQTDDTAIYYCVREGRRYYAMDYWGQGTSVTVSS VL: NIVLTQSPASLAVSLGQRATISCRASESVDSYGNSFMFWFQQKPGQAPKLLIFLTSNLESGVPARFSGSGSRTDFTLTIDRVEADDAATYYCQQSNEDPRTFGGGTKLEIK |
